From US20100317598A1 (University of California, published 2010)
One block for each binder: values may come before it.

How the values were obtained:
[1] = target: cytochrome C (human, UniProt P99999 2-105); test: immunopurification of cytochrome C from transfected HBL-100 cells, quantified immunoblot for APAF-1
Experimental: Immunoblots were quantified using a Kodak 4000 Imaging Station and software. […] Values were obtained from three independent experiments.
HBL-100 and MCF-7 cells were exposed to UV light (6,600 microwatt seconds per square centimeter), or treated with adriamycin (0.2 μg ml⁻¹) for 24 h. […] Immunoblots shown were quantified on a Kodak 4000 Imaging Station and software.

[2] = target: p53 (human, UniProt P04637 1-393); test: cell-based or functional assay
Chain of p53 (P04637 whole entry): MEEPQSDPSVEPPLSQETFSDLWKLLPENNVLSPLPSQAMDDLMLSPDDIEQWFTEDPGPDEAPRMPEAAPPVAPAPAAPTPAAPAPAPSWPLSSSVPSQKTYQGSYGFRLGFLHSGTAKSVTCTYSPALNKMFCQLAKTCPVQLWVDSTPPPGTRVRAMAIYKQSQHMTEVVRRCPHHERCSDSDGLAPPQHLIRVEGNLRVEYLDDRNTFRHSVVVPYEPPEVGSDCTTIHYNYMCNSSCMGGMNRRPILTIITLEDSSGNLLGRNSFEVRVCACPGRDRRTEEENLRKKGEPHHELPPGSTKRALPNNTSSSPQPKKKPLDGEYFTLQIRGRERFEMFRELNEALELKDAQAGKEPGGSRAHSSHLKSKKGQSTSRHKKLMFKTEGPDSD

Chain of cytochrome C (P99999 2-105 limits assumed): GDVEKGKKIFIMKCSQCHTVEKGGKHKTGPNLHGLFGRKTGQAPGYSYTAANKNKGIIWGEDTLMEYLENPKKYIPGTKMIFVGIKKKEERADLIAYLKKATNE

- fold increase of APAF-1 associated to cytochrome C (cells expressing BRCA1 (772-1292) against cells expressing control BRCA1 wt or BRCA1 (772-1036)) [1]: 3 fold
B1: APAF-1 (other, human, UniProt O14727 1-1248, looked up)
chain: MDAKARNCLLQHREALEKDIKTSYIMDHMISDGFLTISEEEKVRNEPTQQQRAAMLIKMILKKDNDSYVSFYNALLHEGYKDLAALLHDGIPVVSSSSGKDSVSGITSYVRTVLCEGGVPQRPVVFVTRKKLVNAIQQKLSKLKGEPGWVTIHGMAGCGKSVLAAEAVRDHSLLEGCFPGGVHWVSVGKQDKSGLLMKLQNLCTRLDQDESFSQRLPLNIEEAKDRLRILMLRKHPRSLLILDDVWDSWVLKAFDSQCQILLTTRDKSVTDSVMGPKYVVPVESSLGKEKGLEILSLFVNMKKADLPEQAHSIIKECKGSPLVVSLIGALLRDFPNRWEYYLKQLQNKQFKRIRKSSSYDYEALDEAMSISVEMLREDIKDYYTDLSILQKDVKVPTKVLCILWDMETEEVEDILQEFVNKSLLFCDRNGKSFRYYLHDLQVDFLTEKNCSQLQDLHKKIITQFQRYHQPHTLSPDQEDCMYWYNFLAYHMASAKMHKELCALMFSLDWIKAKTELVGPAHLIHEFVEYRHILDEKDCAVSENFQEFLSLNGHLLGRQPFPNIVQLGLCEPETSEVYQQAKLQAKQEVDNGMLYLEWINKKNITNLSRLVVRPHTDAVYHACFSEDGQRIASCGADKTLQVFKAETGEKLLEIKAHEDEVLCCAFSTDDRFIATCSVDKKVKIWNSMTGELVHTYDEHSEQVNCCHFTNSSHHLLLATGSSDCFLKLWDLNQKECRNTMFGHTNSVNHCRFSPDDKLLASCSADGTLKLWDATSANERKSINVKQFFLNLEDPQEDMEVIVKCCSWSADGARIMVAAKNKIFLFDIHTSGLLGEIHTGHHSTIQYCDFSPQNHLAVVALSQYCVELWNTDSRSKVADCRGHLSWVHGVMFSPDGSSFLTSSDDQTIRLWETKKVCKNSAVMLKQEVDVVFQENEVMVLAVDHIRRLQLINGRTGQIDYLTEAQVSCCCLSPHLQYIAFGDENGAIEILELVNNRIFQSRFQHKKTVWHIQFTADEKTLISSSDDAEIQVWNWQLDKCIFLRGHQETVKDFRLLKNSRLLSWSFDGTVKVWNIITGNKEKDFVCHQGTVLSCDISHDATKFSSTSADKTAKIWSFDLLLPLHELRGHNGCVRCSAFSVDSTLLATGDDNGEIRIWNVSNGELLHLCAPLSEEGAATHGGWVTDLCFSPDGKMLISAGGYIKWWNVVTGESSQTFYTNGTNLKKIHVSPDFKTYVTVDNLGILYILQTLE

- expression of p21 (immunoblot of immunopurified p21), HBL-100 cells [2]: 5 fold
- percentage of cells in apoptosis (annexin-V-FITC binding), HBL-100 cells [2]: > 10 fold
B2: HA-tag-BRCA1 (772-1292) (other, not shown: small tags and cut ends)
chain: VPGTDYGTQESISLLEVSTLGKAKTEPNKCVSQCAAFENPKGLIHGCSKDNRNDTEGFKYPLGHEVNHSRETSIEMEESELDAQYLQNTFKVSKRQSFAPFSNPGNAEEECATFSAHSGSLKKQSPKVTFECEQKEENQGKNESNIKPVQTVNITAGFPVVGQKDKPVDNAKCSIKGGSRFCLSSQFRGNETGLITPNKHGLLQNPYRIPPLFPIKSFVKTKCKKNLLEENFEEHSMSPEREMGNENIPSTVSTISRNNIRENVFKEASSSNINEVGSSTNEVGSSINEIGSSDENIQAELGRNRGPKLNAMLRLGVLQPEVYKQSLPGSNCKHPEIKKQEYEEVVQTVNTDFSPYLISDNLEQPMGSSHASQVCSETPDDLLDDGEIKEDTSFAENDIKESSAVFSKSVQKGELSRSPSPFTHTHLAQGYRRGAKKLESSEENLSSEDEELPCFQHLLFGKVNNIPSQSTRHSTVATECLSKNTEENLLSLKNSLNDCSNQVILAKASQEHHLSEETKCS
